PMC10491584, “Structural convergence endows nuclear transport receptor Kap114p with a transcriptional repressor function toward TATA-binding protein” (Nature Communications, 2023)

Columns and labels:
Kap114p (Y370A) = target: T1, Kap114p (Y370A) (S. cerevisiae, UniProt P53067 1-1004, Y370A); assay: ITC; MicroCal iTC200, 25 °C, 20 mM HEPES pH 7.4, 150 mM NaCl; high concentration: 50 µM wild type or mutant Kap114p in the sample cell, 500 µM wild type or mutant yTBPC in the syringe; triplicate; details: both partners purified
T1 construct: Kap114p, S. cerevisiae, full length with Y370A; also called GST-Kap114p (Y370A); source: E. coli Rosetta, purified (GST resin, MonoQ, Superdex 200)
T1 sequence (looked up): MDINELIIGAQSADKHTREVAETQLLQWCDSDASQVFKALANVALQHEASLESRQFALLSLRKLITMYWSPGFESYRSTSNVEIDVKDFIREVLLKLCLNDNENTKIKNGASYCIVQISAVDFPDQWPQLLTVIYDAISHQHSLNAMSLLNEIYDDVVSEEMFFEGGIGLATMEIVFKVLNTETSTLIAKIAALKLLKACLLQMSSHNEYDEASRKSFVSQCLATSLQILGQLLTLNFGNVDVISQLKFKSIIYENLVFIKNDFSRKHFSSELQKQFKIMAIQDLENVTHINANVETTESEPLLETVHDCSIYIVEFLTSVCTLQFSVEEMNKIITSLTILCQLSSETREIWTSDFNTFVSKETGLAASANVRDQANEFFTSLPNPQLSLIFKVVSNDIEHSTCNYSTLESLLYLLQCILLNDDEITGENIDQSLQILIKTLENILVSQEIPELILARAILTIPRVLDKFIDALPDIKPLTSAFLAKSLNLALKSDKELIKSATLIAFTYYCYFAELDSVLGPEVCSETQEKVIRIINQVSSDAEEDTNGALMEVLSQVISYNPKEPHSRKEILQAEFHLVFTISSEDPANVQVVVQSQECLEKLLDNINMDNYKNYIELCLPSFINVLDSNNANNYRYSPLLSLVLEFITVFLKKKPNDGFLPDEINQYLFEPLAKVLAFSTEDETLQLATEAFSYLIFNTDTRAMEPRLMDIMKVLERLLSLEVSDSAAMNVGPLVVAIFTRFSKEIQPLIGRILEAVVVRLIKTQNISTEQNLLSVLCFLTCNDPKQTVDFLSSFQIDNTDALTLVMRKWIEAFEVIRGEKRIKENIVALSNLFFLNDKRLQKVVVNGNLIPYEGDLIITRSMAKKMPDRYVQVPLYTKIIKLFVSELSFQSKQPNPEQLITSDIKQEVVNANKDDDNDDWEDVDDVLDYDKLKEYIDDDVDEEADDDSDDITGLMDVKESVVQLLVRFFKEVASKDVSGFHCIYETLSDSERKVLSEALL

Kap114pΔ(848-875) = target: T2, Kap114pΔ(848-875) (S. cerevisiae, UniProt P53067 1-1004, Δ848-875); assay: as above; details: both partners purified
T2 construct: this construct is not in the list of mutants of the cloning methods; also called Δ(a.a.848-875); GST-Kap114p (Δ848-875); source: E. coli Rosetta, purified (GST resin, MonoQ, Superdex 200)
T2 sequence (looked up): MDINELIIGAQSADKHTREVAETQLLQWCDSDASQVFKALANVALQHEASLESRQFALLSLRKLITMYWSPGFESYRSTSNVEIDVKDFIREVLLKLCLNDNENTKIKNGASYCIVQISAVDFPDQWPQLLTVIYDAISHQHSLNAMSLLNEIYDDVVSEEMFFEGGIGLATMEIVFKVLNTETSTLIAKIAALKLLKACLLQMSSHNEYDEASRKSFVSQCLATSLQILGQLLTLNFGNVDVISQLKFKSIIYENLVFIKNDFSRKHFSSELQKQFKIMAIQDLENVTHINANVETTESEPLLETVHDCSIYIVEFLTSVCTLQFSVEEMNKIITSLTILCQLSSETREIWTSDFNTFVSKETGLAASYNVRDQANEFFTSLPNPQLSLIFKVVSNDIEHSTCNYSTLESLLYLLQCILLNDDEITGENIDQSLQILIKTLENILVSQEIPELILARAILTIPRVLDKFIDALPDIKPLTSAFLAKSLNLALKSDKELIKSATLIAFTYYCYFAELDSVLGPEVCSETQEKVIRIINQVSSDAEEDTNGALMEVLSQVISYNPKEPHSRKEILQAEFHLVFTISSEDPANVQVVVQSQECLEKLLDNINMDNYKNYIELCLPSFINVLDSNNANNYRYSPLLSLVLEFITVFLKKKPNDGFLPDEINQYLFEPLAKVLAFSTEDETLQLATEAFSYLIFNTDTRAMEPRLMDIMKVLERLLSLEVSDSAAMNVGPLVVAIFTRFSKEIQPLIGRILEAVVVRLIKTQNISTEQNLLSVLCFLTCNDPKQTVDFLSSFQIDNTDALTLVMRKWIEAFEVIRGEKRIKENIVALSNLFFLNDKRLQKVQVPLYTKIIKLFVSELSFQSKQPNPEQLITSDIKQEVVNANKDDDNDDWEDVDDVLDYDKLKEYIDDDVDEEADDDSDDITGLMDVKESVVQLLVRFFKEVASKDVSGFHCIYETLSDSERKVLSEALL

B1: yTBP^C wild type (core domain of yeast TATA-box binding protein, a.a. 61-240) (domain or fragment, S. cerevisiae, UniProt P13393 61-240, looked up)
chain: SGIVPTLQNIVATVTLGCRLDLKTVALHARNAEYNPKRFAAVIMRIREPKTTALIFASGKMVVTGAKSEDDSKLASRKYARIIQKIGFAAKFTDFKIQNIVGSCDVKFPIRLEGLAFSHGTFSSYEPELFPGLIYRMVKPKIVLLIFVSGKIVLTGAKQREEIYQAFEAIYPVLSEFRKM
notes: modified pET28a, 6xHis tag followed by a PreScission site; also called yTBPC WT; His-yTBP (61-240); source: E. coli Rosetta, purified (Ni-NTA, HiTrap SP, Superdex 75); not shown: His6, N-terminal, cleaved
Kap114p (Y370A)
  Kd: 20 nM
Kap114pΔ(848-875)
  Kd: 1.7 nM
